The record followed here is patent US12616751B2, “Photosensitizing antibody-fluorophore conjugates” (The USA, as represented by the Secretary, Department of …, priority 2010, dated 2026).

One data set concerns A431 tumor. Nature of the data set: In vivo fluorescence imaging of Pan-IR700 in A431 tumors. Set-up: species or system mice. The procedure: (§1) To confirm antigen specific localization of Pan-IR700, 1×10^6 of 3T3/HER2 cells (HER1 negative) were injected subcutaneously in the right dorsum at the same time of A431 cells injection. […] Regions of interest (ROI) for both tumor and background were placed for equivalent sized areas containing the same number of pixels. Tumor to background ratio (TBR) was calculated using the following formula: TBR=((mean tumor intensity)−(mean background intensity))/((mean non-tumor intensity)−(mean background intensity)).

The test system of data set [1] is A431 cells. It is filed as cell-based. The procedure: EGFR-expressing A431 cells were used as the target HER1+ cells. […] Cells were grown in RPMI 1640 supplemented with 10% fetal bovine serum and 1% penicillin/streptomycin in tissue culture flasks in a humidified incubator at 37° C. in an atmosphere of 95% air and 5% carbon dioxide. A431 or Balb/3T3/DsRed cells were seeded on cover glass-bottomed dishes and incubated for 24 hours. Pan-IR700 was added to the culture medium at 10 μg/mL and incubated either for 1 hour on ice or 6 hours at 37° C., then cells were washed with PBS. Culture medium was replaced with phenol red-free medium after washing with phosphate buffered saline (PBS).
PIT was performed as described in Examples 2 and 3.

The test system of data set [2] is A431 cells. Nature of the data set: Cell pellet FLT studies. Format: cell-based. The protocol:
Reagents. […] All other chemicals used were of reagent grade. […] Then the mixture was purified with a Sephadex G50 column (PD-10; GE Healthcare). The protein concentrations were determined with Coomassie Plus protein assay kit (Pierce Biotechnology) by measuring light absorption at 595 nm (8453 Value System; Agilent Technologies). […] The number of IR700 per antibody was approximately 4 for the 1:4.5 reaction conditions. The addition of 0.4% SDS to the sample dissociated the fluorophores from each other, effectively causing dequenching. Quenching efficiency (QE) for a particular conjugation is defined as the fluorescence intensity with SDS divided by fluorescence intensity without SDS. […] Pan-1R700 was kept at 4° C. in the refrigerator as a stock solution. Fluorescence lifetime measurements. FLT experiments were performed with the eXplore OptixTm-MX2 system (ART Advanced Research Technologies, Inc.) (Hutchinson et al., Biophys J 68:1574-82, 1995; Ma et al., Appl Opt 46:1650-7, 2007). […] Lifetime values and lifetime mapping were calculated to fit fluorescence temporal point-spread functions (TPSFs) as single-exponential models with the Fit TPSF tool. […] Power densities were measured with an optical power meter (PM 100, Thorlabs). […] The fluorescence intensities and lifetimes of each sample were determined using the Optix MX2 system at room temperature within a 1.7 ml centrifuge tube. To investigate the effect of PIT using Pan-1R700, the FLT of each sample at the concentration of 50 pg/mL was measured after irradiating the samples at a PIT dose of 0, 2, 4, 8, 15, 30 J/cm2. […] The fluorescence intensities and lifetimes of each sample were then obtained. […] After that, these pellets were gently washed with PBS×1 and fluorescence intensity and lifetime images were obtained. To detect the antigen specific localization of IR700 and to confirm the morphological changes of A431 cells before and after PIT, fluorescence microscopy was performed using Olympus BX61 microscope (Olympus America) equipped with the following filters: a 590-650 nm excitation filter, a 665-740 nm band pass emission filter. […]

For a further data set, the system named is MDA-MB-468 cells. Nature of the data set: In vitro PIT, microscopy before and after. Format: cell-based. The protocol:
For photoimmunotherapy (PIT), cells were seeded on 35 mm cover glass-bottomed dishes and incubated 24 hours. […] Culture medium was replaced with phenol red-free medium after washing with phosphate buffered saline (PBS). Cells were irradiated with light at 670 nm to 690 nm using a red light emitting diode (LED; FluorVivo; INDEC Systems Inc., Capitola, Calif.) with a power density of 2.6 mW cm^−2 as measured with optical power meter (PM 100, Thorlabs, Newton, N.J.). Cell viability was assessed 1 hour after treatment with LIVE/DEAD® Fixable Green Dead Cell Stain Kit (Invitrogen). After the treatment, cells were trypsinized and washed with PBS. Green fluorescent reactive dye was added in the cell suspension and incubated at room temperature for 30 minutes. Cells were then analyzed on flow cytometer (FACS Calibur, BD BioSciences, San Jose, Calif.).
This example describes additional results showing that the disclosed antibody-IR700 compounds selectively kill cells that express the appropriate protein. The photoimmunotherapy (PIT) methods are described in Example 2.

A further data set has as its system 3T3/HER2 tumor. The data set can be described thus: In vivo fluorescence imaging of Pan-IR700 in HER1 negative tumor. More on the design: species or system mice. Conditions: mouse, listed as Pan-1R700. The procedure:
as §1

Entries after “also recorded” stand apart in the source; their conditions may differ.

Take “Pan-IR700: Panitumumab (anti-human EGFR IgG2 MAb) conjugated to IR700; about 3 to 4 IR700 per antibody”: the “fluorescence intensity of tumor, 300 μg versus 50 μg injection” value with A431 tumor (1 day after injection) is given as “more than 3 times”. Besides, the “TBR, 300 μg versus 50 μg injection” value with A431 tumor (mouse, in vivo) was “lower”. For the same substance, in the data set on A431 tumor (mouse, in vivo), the “fluorescence intensity in tumor over time” value is “decreased gradually over days”. Moreover, the “other localization of IR700 (biodistribution)” value in the data set with A431 tumor (mouse, in vivo) is given as “no other specific localization of IR700 except for bladder accumulation on day 1”. Also, the “tumor localization (in vivo fluorescence imaging)” value in the data set on A431 tumor (mouse, in vivo) is reported as “localized to the A431 tumor”. In the data set on A431 cells [1], the “cytotoxicity without excitation light” value was “no significant cytotoxicity”. Moreover, the “cell death after irradiation” value in the data set with A431 cells [1] (0.5 to 2 J cm^−2) is given as “rapid cell death in a dose-dependent manner”. Also, the “cell killing by PIT (microscopy)” value with A431 cells [1] (FIG. 8) and in the data set on MDA-MB-468 cells was “specifically killed” throughout. In addition, the “target-specific phototoxicity in co-culture” value in the data set on A431 cells [1] (co-cultured with Balb/3T3/DsRed (HER1 negative) cells) is “Target-specific phototoxicity was also confirmed”. The “shortening of FLT” value in the data set with A431 cells [2] (8 J/cm^2 versus before light exposure) came out at 9.1%; with A431 cells [2] (15 J/cm^2 versus before light exposure), 10.1%; with A431 cells [2] (30 J/cm^2 versus before light exposure), 13.1%. Also, the “fluorescence of HER1 negative tumor” value in the data set on 3T3/HER2 tumor was “the same as that of background; also recorded: did not show detectable fluorescence”.
